The target of series [1] is T1, RsmE (Pseudomonas fluorescens CHA0, UniProt P0DPC3 1-64).
T1 sequence: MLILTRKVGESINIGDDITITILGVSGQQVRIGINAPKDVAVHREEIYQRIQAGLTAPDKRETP
In words: ITC; first RNA on dimer, two-site fit; ITC: 300 mM NaCl, 50 mM potassium phosphate pH 8.0, 298 K; NMR: 30 mM NaCl, 50 mM potassium phosphate pH 7.2, 313 K. The following applies: protein: recombinant; tags: C-terminal His tag; chain copies: 2; hairpin. (In general: Isothermal titration calorimetry measures the heat released or taken up as one component is titrated into another.)

Series [2] deals with T1, RsmE. In words: ITC; second RNA on dimer, two-site fit; ITC: 300 mM NaCl, 50 mM potassium phosphate pH 8.0, 298 K; NMR: 30 mM NaCl, 50 mM potassium phosphate pH 7.2, 313 K. Conditions: protein: recombinant; tags: C-terminal His tag; chain copies: 2; hairpin.
Series [3] deals with T1, RsmE. The experiment in a line: ITC; two-site fit, high affinity, similar to SL2; values in figure; ITC: 300 mM NaCl, 50 mM potassium phosphate pH 8.0, 298 K; NMR: 30 mM NaCl, 50 mM potassium phosphate pH 7.2, 313 K. Conditions: protein: recombinant; tags: C-terminal His tag; chain copies: 2; hairpin.
Series [4] deals with T1, RsmE. In words: NMR structure; slow exchange; ITC: 300 mM NaCl, 50 mM potassium phosphate pH 8.0, 298 K; NMR: 30 mM NaCl, 50 mM potassium phosphate pH 7.2, 313 K. Conditions: protein: recombinant; tags: C-terminal His tag; chain copies: 2; hairpin.
The target in series [5] is T1, RsmE. In words: ITC; intermediate affinity; value in figure; ITC: 300 mM NaCl, 50 mM potassium phosphate pH 8.0, 298 K; NMR: 30 mM NaCl, 50 mM potassium phosphate pH 7.2, 313 K. The following applies: protein: recombinant; tags: C-terminal His tag; chain copies: 2.

B1: RsmZ SL2 (structured_RNA)
RNA: GGGCCAUCAAGGACGAUGGUCC
In the case of B1, the dissociation constant Kd in series [1] was found to be 16 ± 3 nM; in series [2], 185 ± 3 nM.

B2: 20nt-RBS (hcnA GGA#5) (structured_RNA)
RNA: GGGCUUCACGGAUGAAGCCC
Consider B2, for which the binding result in series [3] is on record as “binds”.

B3: RsmZ SL4 (structured_RNA)
RNA: GGGUCAUCAGGACGAUGACCC
With B3, in series [4], the binding result is “binds”.

B4: hcnA-GGA#3 (structured_RNA)
RNA: GAGCAUGGACGGCGAGACGCCGGGUA
Turning to B4, in series [5], the binding result was “binds”.

B5: RsmZ SL3 (structured_RNA)
RNA: GGGAUCGCAGGAAGCGAUCCC
B5: the binding result in series [4] is “binds”.

B6: RsmZ SL1 (structured_RNA)
RNA: GGGUGUCGACGGAUAGACACCC
In the case of B6, in series [4], the binding result is “binds”.

Usually Kd stands for a measure of binding affinity in units of concentration.

The values are drawn from publication PMC4005645, “Molecular basis for the wide range of affinity found in Csr/Rsm protein–RNA recognition”.
